Results as given in article PMC4113420 (Molecular cell, 2014).
Where a chain is given by its changes, count along the chain named. Values belong to the binder of their own block, whether it stands above or below them.

Columns and labels:
Msh2-Msh6 = Msh2-Msh6 (S. cerevisiae, UniProt P25847 1-964; Q03834 1-1242); assay: SPR
SEC = target: the molecule itself; assay: SEC

Msh2-Msh6, sequence (P25847 whole entry, chain 1 of 2): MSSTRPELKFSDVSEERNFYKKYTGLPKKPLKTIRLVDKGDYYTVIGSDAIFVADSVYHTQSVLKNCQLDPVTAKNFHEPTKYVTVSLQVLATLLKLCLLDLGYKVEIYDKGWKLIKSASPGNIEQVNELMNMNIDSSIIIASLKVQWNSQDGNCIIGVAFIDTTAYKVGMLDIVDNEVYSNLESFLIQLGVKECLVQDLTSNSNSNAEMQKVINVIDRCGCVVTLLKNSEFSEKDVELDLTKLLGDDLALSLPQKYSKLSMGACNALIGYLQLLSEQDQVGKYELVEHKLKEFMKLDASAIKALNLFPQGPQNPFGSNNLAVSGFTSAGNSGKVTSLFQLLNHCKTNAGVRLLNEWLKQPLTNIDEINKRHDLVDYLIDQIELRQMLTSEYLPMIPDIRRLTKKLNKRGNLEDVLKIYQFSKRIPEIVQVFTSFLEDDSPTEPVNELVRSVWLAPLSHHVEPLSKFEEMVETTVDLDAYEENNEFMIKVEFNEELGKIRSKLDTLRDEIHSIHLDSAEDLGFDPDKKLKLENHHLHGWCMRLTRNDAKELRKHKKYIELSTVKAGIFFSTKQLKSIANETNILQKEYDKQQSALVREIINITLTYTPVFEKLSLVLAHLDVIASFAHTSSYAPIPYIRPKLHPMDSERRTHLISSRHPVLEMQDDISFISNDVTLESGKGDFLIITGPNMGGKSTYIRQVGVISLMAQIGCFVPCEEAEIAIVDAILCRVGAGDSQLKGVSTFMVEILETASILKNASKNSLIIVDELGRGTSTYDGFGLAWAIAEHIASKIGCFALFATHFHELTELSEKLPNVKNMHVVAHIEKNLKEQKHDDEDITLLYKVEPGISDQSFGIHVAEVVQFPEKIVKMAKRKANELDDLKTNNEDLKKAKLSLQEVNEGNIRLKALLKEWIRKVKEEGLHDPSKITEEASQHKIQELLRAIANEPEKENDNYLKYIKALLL
Msh2-Msh6, sequence (Q03834 whole entry, chain 2 of 2): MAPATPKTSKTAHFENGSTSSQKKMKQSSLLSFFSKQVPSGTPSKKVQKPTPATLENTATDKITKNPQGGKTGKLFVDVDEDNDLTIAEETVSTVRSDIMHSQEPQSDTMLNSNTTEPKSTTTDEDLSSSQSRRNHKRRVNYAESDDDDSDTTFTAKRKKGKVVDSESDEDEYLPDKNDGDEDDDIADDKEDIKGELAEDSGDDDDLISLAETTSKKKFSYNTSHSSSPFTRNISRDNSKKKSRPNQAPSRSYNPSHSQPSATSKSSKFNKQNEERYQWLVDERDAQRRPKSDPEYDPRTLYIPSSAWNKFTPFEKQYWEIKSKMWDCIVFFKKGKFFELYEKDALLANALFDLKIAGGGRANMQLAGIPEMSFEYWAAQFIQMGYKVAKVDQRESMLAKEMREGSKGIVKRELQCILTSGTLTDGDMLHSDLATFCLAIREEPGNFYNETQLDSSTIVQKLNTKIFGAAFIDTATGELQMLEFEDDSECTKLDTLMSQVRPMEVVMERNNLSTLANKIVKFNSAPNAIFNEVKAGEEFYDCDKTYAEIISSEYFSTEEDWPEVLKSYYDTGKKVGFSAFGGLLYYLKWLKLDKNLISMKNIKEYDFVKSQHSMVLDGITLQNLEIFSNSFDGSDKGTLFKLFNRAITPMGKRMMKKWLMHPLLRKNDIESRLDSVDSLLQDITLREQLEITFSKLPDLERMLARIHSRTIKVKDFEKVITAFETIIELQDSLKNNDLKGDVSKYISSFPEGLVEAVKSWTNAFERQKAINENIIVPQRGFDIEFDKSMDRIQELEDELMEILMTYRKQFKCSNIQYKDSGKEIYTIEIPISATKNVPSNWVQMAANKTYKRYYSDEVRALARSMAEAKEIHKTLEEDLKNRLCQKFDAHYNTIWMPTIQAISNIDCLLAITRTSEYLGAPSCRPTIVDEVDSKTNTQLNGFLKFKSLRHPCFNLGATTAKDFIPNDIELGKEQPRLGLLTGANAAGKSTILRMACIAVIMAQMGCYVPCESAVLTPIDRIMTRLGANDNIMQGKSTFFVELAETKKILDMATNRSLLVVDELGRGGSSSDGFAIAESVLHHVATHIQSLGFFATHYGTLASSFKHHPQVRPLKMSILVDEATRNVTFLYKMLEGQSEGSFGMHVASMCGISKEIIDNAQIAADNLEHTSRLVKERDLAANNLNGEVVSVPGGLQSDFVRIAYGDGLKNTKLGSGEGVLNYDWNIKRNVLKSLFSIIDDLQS

binding result (Msh2-Msh6): binds
B1: Wild-type PCNA (S. cerevisiae, encoded by POL30) (natural protein)
chain: MLEAKFEEASLFKRIIDGFKDCVQLVNFQCKEDGIIAQAVDDSRVLLVSLEIGVEAFQEYRCDHPVTLGMDLTSLSKILRCGNNTDTLTLIADNTPDSIILLFEDTKKDRIAEYSLKLMDIDADFLKIEELQYDSTLSLPSSEFSKIVRDLSQLSDSINIMITKETIKFVADGDIGSGSVIIKPFVDMEHPETSIKLEMDQPVDLTFGAKYLLDIIKGSSLSDRVGIRLSSEAPALFQFDLKSGFLQFFLAPKFNDEE
modifications: biotinylated when bound to the SPR chip (site not stated)
binding result (SEC): binds

binding result (Msh2-Msh6): binds
B3: PCNA-E143K (natural protein, S. cerevisiae)
chain: B1 chain with E143K
modifications: biotinylated when bound to the SPR chip (site not stated)
binding result (SEC): binds

binding result (Msh2-Msh6): binds
B4: PCNA-C22Y (natural protein, S. cerevisiae)
chain: B1 chain with C22Y
modifications: biotinylated when bound to the SPR chip (site not stated)
binding result (SEC): binds

binding result (Msh2-Msh6): binds
B5: PCNA-L68S (natural protein, S. cerevisiae)
chain: B1 chain with L68S
modifications: biotinylated when bound to the SPR chip (site not stated)

The next lines start with the binder.

B2: PCNA-C81R (natural protein, S. cerevisiae)
chain: B1 chain with C81R
modifications: biotinylated when bound to the SPR chip (site not stated)
binding result (Msh2-Msh6): binds

B6: PCNA-F254L (natural protein, S. cerevisiae)
chain: B1 chain with F254L
modifications: biotinylated when bound to the SPR chip (site not stated)
binding result (Msh2-Msh6): binds
binding result (SEC): binds

B7: PCNA-K217E (natural protein, S. cerevisiae)
chain: B1 chain with K217E
modifications: biotinylated when bound to the SPR chip (site not stated)
binding result (Msh2-Msh6): binds
binding result (SEC): binds

B8: PCNA-K13E (natural protein, S. cerevisiae)
chain: B1 chain with K13E
modifications: biotinylated when bound to the SPR chip (site not stated)
binding result (Msh2-Msh6): binds
binding result (SEC): binds
